Reference: patent US20090291890A1 (published 2009)
Changes are numbered by the printed parent chain. Names may count otherwise. Blank lines part the entries; values can stand above or below the binder they belong to.

Key:
[1] = target: Factor X (Homo sapiens (Human)) (UniProt P00742)
Mesyl-dFPR-ACC = target: T1, Mesyl-dFPR-ACC
T1 sequence (peptide, N-terminal mesyl; D-Phe at position 1 (dF); C-terminal ACC fluorophore): FPR

[2] = target: T2, soluble tissue factor (recombinant human Coagulation Factor III/soluble tissue factor; R&D Systems) (human); test: SPR (Biacore T100), sTF on chip, two-state fit
T2 chain: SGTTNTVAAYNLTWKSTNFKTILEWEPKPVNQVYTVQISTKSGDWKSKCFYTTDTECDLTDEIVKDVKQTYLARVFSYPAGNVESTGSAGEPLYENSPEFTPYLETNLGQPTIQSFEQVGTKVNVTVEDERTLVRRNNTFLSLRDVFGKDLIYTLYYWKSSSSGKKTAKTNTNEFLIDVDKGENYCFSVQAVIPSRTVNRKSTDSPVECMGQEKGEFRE

B4: H257S/Q286R/Q366V-FVIIa (enzyme)
chain: ANAFLEELRPGSLERECKEEQCSFEEAREIFKDAERTKLFWISYSDGDQCASSPCQNGGSCKDQLQSYICFCLPAFEGRNCETHKDDQLICVNENGGCEQYCSDHTGTKRSCRCHEGYSLLADGVSCTPTVEYPCGKIPILEKRNASKPQGRIVGGKVCPKGECPWQVLLLVNGAQLCGGTLINTIWVVSAAHCFDKIKNWRNLIAVLGEHDLSEHDGDEQSRRVAQVIIPSTYVPGTTNHDIALLRLHQPVVLTDSVVPLCLPERTFSERTLAFVRFSLVSGWGRLLDRGATALELMVLNVPRLMTQDCLQQSRKVGDSPNITEYMFCAGYSDGSKDSCKGDSGGPHATHYRGTWYLTGIVSWGVGCATVGHFGVYTRVSQYIEWLQKLMRSEPRPGVLLRAPFP
- kcat/KM (M^-1s^-1), TF-dependent assay [1]: 7.1e+07 M⁻¹ s⁻¹
- kcat/KM, TF-independent assay [1]: 7.7 M⁻¹ s⁻¹
- Activity (µmol/sec/µmol), specific activity for mesyl-dFPR-ACC (µmol/sec/µmol) (Mesyl-dFPR-ACC): 2

B6: H257S/Q286R/M298Q/H373F-FVIIa (enzyme)
chain: B4 chain with M298Q, V366Q, H373F
- kcat/KM (M^-1s^-1), TF-dependent assay [1]: 1.52e+08 M⁻¹ s⁻¹
- kcat/KM, TF-independent assay [1]: 30.4 M⁻¹ s⁻¹
- Activity (µmol/sec/µmol), specific activity for mesyl-dFPR-ACC (µmol/sec/µmol) (Mesyl-dFPR-ACC): 2.32

B7: S222A/T239V-FVIIa (enzyme)
chain: B4 chain with S222A, T239V, S257H, R286Q, V366Q
- kcat/KM (M^-1s^-1), TF-dependent assay [1]: 7.49e+07 M⁻¹ s⁻¹
- kcat/KM, TF-independent assay [1]: 3 M⁻¹ s⁻¹
- Activity (µmol/sec/µmol), specific activity for mesyl-dFPR-ACC (µmol/sec/µmol) (Mesyl-dFPR-ACC): 1.91

B9: FVIIa K109N (enzyme)
chain: B4 chain with K109N, S257H, R286Q, V366Q
- Kd [2]: 10.8 nM

B16: V158D/E296V/M298Q/H373F-FVIIa (enzyme)
chain: B4 chain with V158D, S257H, R286Q, E296V, M298Q, V366Q, H373F
- kcat/KM, TF-dependent assay [1]: 1.51e+08 M⁻¹ s⁻¹
- kcat/KM, TF-independent assay [1]: 1300 M⁻¹ s⁻¹
- Activity (µmol/sec/µmol), specific activity for mesyl-dFPR-ACC (µmol/sec/µmol) (Mesyl-dFPR-ACC): 5.6

B17: S52A/S60A/Q286R/H373F-FVIIa (enzyme)
chain: B4 chain with S52A, S60A, S257H, V366Q, H373F
- kcat/KM (M^-1s^-1), TF-dependent assay [1]: 9.44e+07 M⁻¹ s⁻¹
- kcat/KM, TF-independent assay [1]: 30.1 M⁻¹ s⁻¹
- Activity (µmol/sec/µmol), specific activity for mesyl-dFPR-ACC (µmol/sec/µmol) (Mesyl-dFPR-ACC): 3.14

B18: T239V/Q286R/M298Q/H373F-FVIIa (enzyme)
chain: B4 chain with T239V, S257H, M298Q, V366Q, H373F
- kcat/KM (M^-1s^-1), TF-dependent assay [1]: 1.7e+08 M⁻¹ s⁻¹
- kcat/KM, TF-independent assay [1]: 40.7 M⁻¹ s⁻¹
- Activity (µmol/sec/µmol), specific activity for mesyl-dFPR-ACC (µmol/sec/µmol) (Mesyl-dFPR-ACC): 3.07

B19: S222A/T239I-FVIIa (enzyme)
chain: B4 chain with S222A, T239I, S257H, R286Q, V366Q
- kcat/KM (M^-1s^-1), TF-dependent assay [1]: 3.05e+07 M⁻¹ s⁻¹
- kcat/KM, TF-independent assay [1]: 1.7 M⁻¹ s⁻¹
- Activity (µmol/sec/µmol), specific activity for mesyl-dFPR-ACC (µmol/sec/µmol) (Mesyl-dFPR-ACC): 1.36

B21: T239I/Q286R-FVIIa (enzyme)
chain: B4 chain with T239I, S257H, V366Q
- kcat/KM (M^-1s^-1), TF-dependent assay [1]: 5.79e+07 M⁻¹ s⁻¹
- kcat/KM, TF-independent assay [1]: 4.6 M⁻¹ s⁻¹
- Activity (µmol/sec/µmol), specific activity for mesyl-dFPR-ACC (µmol/sec/µmol) (Mesyl-dFPR-ACC): 0.88

B23: T239I/Q286R/M298Q/H373F-FVIIa (enzyme)
chain: B4 chain with T239I, S257H, M298Q, V366Q, H373F
- kcat/KM (M^-1s^-1), TF-dependent assay [1]: 1.08e+08 M⁻¹ s⁻¹
- kcat/KM, TF-independent assay [1]: 13.1 M⁻¹ s⁻¹
- Activity (µmol/sec/µmol), specific activity for mesyl-dFPR-ACC (µmol/sec/µmol) (Mesyl-dFPR-ACC): 1.59

B25: S222A/H257A/Q286R/Q366V-FVIIa (enzyme)
chain: B4 chain with S222A, S257A
- kcat/KM (M^-1s^-1), TF-dependent assay [1]: 1e+08 M⁻¹ s⁻¹
- kcat/KM, TF-independent assay [1]: 12.5 M⁻¹ s⁻¹
- Activity (µmol/sec/µmol), specific activity for mesyl-dFPR-ACC (µmol/sec/µmol) (Mesyl-dFPR-ACC): 2.43

B26: M298Q/H373F-FVIIa (enzyme)
chain: B4 chain with S257H, R286Q, M298Q, V366Q, H373F
- kcat/KM (M^-1s^-1), TF-dependent assay [1]: 7.21e+07 M⁻¹ s⁻¹
- kcat/KM, TF-independent assay [1]: 96.4 M⁻¹ s⁻¹
- Activity (µmol/sec/µmol), specific activity for mesyl-dFPR-ACC (µmol/sec/µmol) (Mesyl-dFPR-ACC): 4

Second part, the binder after the results:

- kcat/KM (M^-1s^-1), TF-dependent assay [1]: 2.1e+08 M⁻¹ s⁻¹
- kcat/KM, TF-independent assay [1]: 415 M⁻¹ s⁻¹
- Activity (µmol/sec/µmol), specific activity for mesyl-dFPR-ACC (µmol/sec/µmol) (Mesyl-dFPR-ACC): 1.12
B1: Gla swap FIX/S222A/Q286R/M298Q-FVIIa (enzyme)
chain: YNSGKLEEFVQGNLERECMEEKCSFEEAREVFENTERTTEFWKQYSDGDQCASSPCQNGGSCKDQLQSYICFCLPAFEGRNCETHKDDQLICVNENGGCEQYCSDHTGTKRSCRCHEGYSLLADGVSCTPTVEYPCGKIPILEKRNASKPQGRIVGGKVCPKGECPWQVLLLVNGAQLCGGTLINTIWVVSAAHCFDKIKNWRNLIAVLGEHDLSEHDGDEQARRVAQVIIPSTYVPGTTNHDIALLRLHQPVVLTDHVVPLCLPERTFSERTLAFVRFSLVSGWGRLLDRGATALELQVLNVPRLMTQDCLQQSRKVGDSPNITEYMFCAGYSDGSKDSCKGDSGGPHATHYRGTWYLTGIVSWGQGCATVGHFGVYTRVSQYIEWLQKLMRSEPRPGVLLRAPFP

- kcat/KM, TF-dependent assay [1]: 3.88e+07 M⁻¹ s⁻¹
- kcat/KM, TF-independent assay [1]: 30.5 M⁻¹ s⁻¹
- Activity (µmol/sec/µmol), specific activity for mesyl-dFPR-ACC (µmol/sec/µmol) (Mesyl-dFPR-ACC): 0.75
B2: Gla swap FIX/T128N/P129A/A175S/S222A/Q286R-FVIIa (enzyme)
chain: B1 chain with T129N, P130A, A176S, Q299M

- Kd [2]: 36 nM
B3: FVIIa Gla swap FIX (enzyme)
chain: B1 chain with A223S, R287Q, Q299M

- kcat/KM, TF-dependent assay [1]: 1.13e+08 M⁻¹ s⁻¹
- kcat/KM, TF-independent assay [1]: 61.5 M⁻¹ s⁻¹
- Activity (µmol/sec/µmol), specific activity for mesyl-dFPR-ACC (µmol/sec/µmol) (Mesyl-dFPR-ACC): 2.18
B5: H257A/Q286R/M298Q-FVIIa (enzyme)
chain: B4 chain with S257A, M298Q, V366Q

- kcat/KM (M^-1s^-1), TF-dependent assay [1]: 1.58e+08 M⁻¹ s⁻¹
- Activity (µmol/sec/µmol), specific activity for mesyl-dFPR-ACC (µmol/sec/µmol) (Mesyl-dFPR-ACC): 1.77
B8: S222A/H257S/Q286R/M298Q-FVIIa (enzyme)
chain: B4 chain with S222A, M298Q, V366Q

- kcat/KM (M^-1s^-1), TF-dependent assay [1]: 1.4e+08 M⁻¹ s⁻¹
- kcat/KM, TF-independent assay [1]: 27.4 M⁻¹ s⁻¹
- Activity (µmol/sec/µmol), specific activity for mesyl-dFPR-ACC (µmol/sec/µmol) (Mesyl-dFPR-ACC): 1.85
B10: H257S/Q286R/M298Q-FVIIa (enzyme)
chain: B4 chain with M298Q, V366Q

- kcat/KM (M^-1s^-1), TF-dependent assay [1]: 1.17e+08 M⁻¹ s⁻¹
- kcat/KM, TF-independent assay [1]: 65.9 M⁻¹ s⁻¹
- Activity (µmol/sec/µmol), specific activity for mesyl-dFPR-ACC (µmol/sec/µmol) (Mesyl-dFPR-ACC): 2.35
B11: Q286R/M298Q/Q366N-FVIIa (enzyme)
chain: B4 chain with S257H, M298Q, V366N

- kcat/KM (M^-1s^-1), TF-dependent assay [1]: 1.36e+08 M⁻¹ s⁻¹
- kcat/KM, TF-independent assay [1]: 115 M⁻¹ s⁻¹
- Activity (µmol/sec/µmol), specific activity for mesyl-dFPR-ACC (µmol/sec/µmol) (Mesyl-dFPR-ACC): 4.59
B12: Q286R/M298Q/H373F-FVIIa (enzyme)
chain: B4 chain with S257H, M298Q, V366Q, H373F

- kcat/KM (M^-1s^-1), TF-dependent assay [1]: 1.14e+08 M⁻¹ s⁻¹
- kcat/KM, TF-independent assay [1]: 51.6 M⁻¹ s⁻¹
- Activity (µmol/sec/µmol), specific activity for mesyl-dFPR-ACC (µmol/sec/µmol) (Mesyl-dFPR-ACC): 1.41
B13: S222A/T239I/H257A/Q286R/M298Q-FVIIa (enzyme)
chain: B4 chain with S222A, T239I, S257A, M298Q, V366Q

- kcat/KM (M^-1s^-1), TF-dependent assay [1]: 6.18e+07 M⁻¹ s⁻¹
- Activity (µmol/sec/µmol), specific activity for mesyl-dFPR-ACC (µmol/sec/µmol) (Mesyl-dFPR-ACC): 1.24
B14: T239I/Q286R/H373F-FVIIa (enzyme)
chain: B4 chain with T239I, S257H, V366Q, H373F

- kcat/KM (M^-1s^-1), TF-dependent assay [1]: 1.13e+08 M⁻¹ s⁻¹
- kcat/KM, TF-independent assay [1]: 11.3 M⁻¹ s⁻¹
- Activity (µmol/sec/µmol), specific activity for mesyl-dFPR-ACC (µmol/sec/µmol) (Mesyl-dFPR-ACC): 1.37
B15: T239I/Q286R/M298Q-FVIIa (enzyme)
chain: B4 chain with T239I, S257H, M298Q, V366Q

- kcat/KM (M^-1s^-1), TF-dependent assay [1]: 1.06e+08 M⁻¹ s⁻¹
- kcat/KM, TF-independent assay [1]: 12.2 M⁻¹ s⁻¹
- Activity (µmol/sec/µmol), specific activity for mesyl-dFPR-ACC (µmol/sec/µmol) (Mesyl-dFPR-ACC): 1.53
B20: T239V/Q286R/H373F-FVIIa (enzyme)
chain: B4 chain with T239V, S257H, V366Q, H373F

- kcat/KM (M^-1s^-1), TF-dependent assay [1]: 9.01e+07 M⁻¹ s⁻¹
- kcat/KM, TF-independent assay [1]: 81.6 M⁻¹ s⁻¹
- Activity (µmol/sec/µmol), specific activity for mesyl-dFPR-ACC (µmol/sec/µmol) (Mesyl-dFPR-ACC): 0.78
B22: Q286R/H373F-FVIIa (enzyme)
chain: B4 chain with S257H, V366Q, H373F

- kcat/KM (M^-1s^-1), TF-dependent assay [1]: 1.29e+08 M⁻¹ s⁻¹
- kcat/KM, TF-independent assay [1]: 253 M⁻¹ s⁻¹
- Activity (µmol/sec/µmol), specific activity for mesyl-dFPR-ACC (µmol/sec/µmol) (Mesyl-dFPR-ACC): 1.9
B24: S222A/Q286R/M298Q-FVIIa (enzyme)
chain: B4 chain with S222A, S257H, M298Q, V366Q

- kcat/KM (M^-1s^-1), TF-dependent assay [1]: 1.45e+08 M⁻¹ s⁻¹
- kcat/KM, TF-independent assay [1]: 216 M⁻¹ s⁻¹
- Activity (µmol/sec/µmol), specific activity for mesyl-dFPR-ACC (µmol/sec/µmol) (Mesyl-dFPR-ACC): 2.24
B27: V158D/T239I/E296V/M298Q-FVIIa (enzyme)
chain: B4 chain with V158D, T239I, S257H, R286Q, E296V, M298Q, V366Q
